# Data reported in patent publication US20220049008A1 (MULTITUDE, published 2022).
# Values joined by “and” are separate entries in the source; they are usually repeats but may differ in a detail not shown here. Identical values can stand only once.
# How the values were obtained:
# [1] = target: T1, CD44 v7/8 (human CD44 v7/8 splice variant) on CD44+ cells (human, UniProt P16070 21-742); assay: flow cytometry on A253 cells; humanized HIS029, A253 cells
# T1 construct: Endogenous protein on tumour cell lines (D562, A253, NCI-H520, BXPC3); no signal peptide limits are stated; also called CD44 variant 7/8; HCAM
# T1 sequence (P16070 21-742 limits assumed, change not shown): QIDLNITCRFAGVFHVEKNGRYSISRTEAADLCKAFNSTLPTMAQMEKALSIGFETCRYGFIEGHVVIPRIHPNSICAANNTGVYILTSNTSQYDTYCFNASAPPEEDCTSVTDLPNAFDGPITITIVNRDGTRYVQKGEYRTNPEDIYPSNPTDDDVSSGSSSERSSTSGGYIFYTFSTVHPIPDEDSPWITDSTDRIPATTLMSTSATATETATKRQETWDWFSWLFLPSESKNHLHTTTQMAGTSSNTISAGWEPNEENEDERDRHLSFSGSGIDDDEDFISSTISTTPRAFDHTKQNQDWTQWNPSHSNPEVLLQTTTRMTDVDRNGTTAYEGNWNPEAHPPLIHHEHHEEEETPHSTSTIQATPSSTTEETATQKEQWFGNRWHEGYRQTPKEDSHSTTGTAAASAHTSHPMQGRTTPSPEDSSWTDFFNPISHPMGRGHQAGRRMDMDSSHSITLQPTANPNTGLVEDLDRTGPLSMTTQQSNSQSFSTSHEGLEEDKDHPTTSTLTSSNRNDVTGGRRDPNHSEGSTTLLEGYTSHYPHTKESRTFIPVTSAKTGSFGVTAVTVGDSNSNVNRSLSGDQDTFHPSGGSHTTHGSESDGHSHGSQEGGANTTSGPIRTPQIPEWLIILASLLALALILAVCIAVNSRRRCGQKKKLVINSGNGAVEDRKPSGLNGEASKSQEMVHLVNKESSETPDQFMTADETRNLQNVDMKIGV
# [2] = target: T1, CD44 v7/8 (human CD44 v7/8 splice …); assay: flow cytometry on CD44+ A253 cells, antibody titration
# [3] = target: T1, CD44 v7/8 (human CD44 v7/8 splice …); assay: cell-based or functional assay
# [4] = target: T1, CD44 v7/8 (human CD44 v7/8 splice …); assay: flow cytometry on A253 cells; HIS029 (parental antibody), A253 cells
Binder,Kd [1] [nM],EC50 (read off the curve) [2],"cell viability, IC50 (A253 cells) [3] [nM]","cell viability, IC50 (BXPC3 cells) [3] [nM]","cell viability, IC50 (D562 cells) [3] [nM]","cell viability, IC50 (NCI-H520 cells) [3] [nM]",Kd [4] [nM]
"Humanized HIS029 (antibody, V domains shown, also called humanized HIS029 antibody) VH: QVQLVQSGSELKKPGASVKVSCKASGYTFTNYWINWVRQAPGQGLEWMGNIYPSDSYTNYNQKFKDRAVFSVDKSVSTAYLQISSLKAEDTAVYYCTKWGDSDYWGQGTTVTVSS VL: DIQMTQSPSSLSASVGDRVTITCKASQDINRYLRWFQQKPGKSPKTLIYRANRLVDGVPSRFSGSGSGQDYTLTISSLQPEDFATYYCLQYDEFPFTFGQGTKLEIK",36,~40 nM and ~60 nM,–,–,–,–,–
"HIS029-vc-MMAE (other, monomethyl auristatin E coupled through a maleimidocaproyl-Val-Cit-PAB linker by a thiol-based reaction; sites not stated) VH: QVHLQQPGAELVRPGASVKLSCKASGYTFTNYWINWVKQRPGQGLEWIGNIYPSDSYTNYNQKFKDKATLTVDKSSSTAYVHLSSPTSEDSAVYYCTKWGDSDYWGQGTTLTVSS VL: DIKMTQSPSSMYASLGERVTITCKASQDINRYLRWFQQKPGKSPKTLIYRANRLVDGVPSRFSGSGSGQDYSLTISSLEYEDMGIYYCLQYDEFPFTFGSGTKLEIK",–,–,0.797,0.189,0.63,0.588,–
"HIS029 (antibody, V domains shown, Monoclonal antibody from a hybridoma, V regions amplified with mouse Ig primers; also called anti-CD44 v7/8 antibody; antibody clone HIS029) VH: QVHLQQPGAELVRPGASVKLSCKASGYTFTNYWINWVKQRPGQGLEWIGNIYPSDSYTNYNQKFKDKATLTVDKSSSTAYVHLSSPTSEDSAVYYCTKWGDSDYWGQGTTLTVSS VL: DIKMTQSPSSMYASLGERVTITCKASQDINRYLRWFQQKPGKSPKTLIYRANRLVDGVPSRFSGSGSGQDYSLTISSLEYEDMGIYYCLQYDEFPFTFGSGTKLEIK",–,~40 nM,–,–,–,–,35
